According to patent publication US20130116146A1 (University of California, published 2013):
Non-standard residues stand in square brackets, D forms with d. Primed or numbered codes have the meaning given here. No end group written: not given here. Me3″ = trimethyl (trimethyl-lysine); Ahx = NCCCCCC(=O)O

T1: Polycomb protein chromodomain (a.a. 1-90), GST-tagged fusion protein (Drosophila melanogaster, UniProt P26017 1-90)
T1 construct: range 1-90; also called Polycomb-GST fusion protein; Polycomb chromodomain; not shown: GST tag
T1 sequence (looked up): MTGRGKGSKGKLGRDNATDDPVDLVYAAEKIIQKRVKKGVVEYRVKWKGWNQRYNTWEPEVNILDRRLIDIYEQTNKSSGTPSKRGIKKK


biological target: T2, GST-tagged Abl SH3 domain fusion protein (human, UniProt P00519 61-121, limits assumed); test: peptide microarray, GST-Abl SH3 5 uM overlaid, peptide printed at 1 mg/ml, Cy3 fluorescence, triplicates
T2 construct: domain: SH3 domain; also called GST-Abl SH3; Abl1 SH3 domain; not shown: GST tag
Procedure: All peptides were synthesized by Sigma-Aldrich. The peptides were printed onto glass slides in triplicates by ArrayIt Corporation. A buffer blank and a Cy3 marker were also printed in triplicates. The peptide arrays were blocked with the blocking buffer (5% non-fat dry milk, TBS pH8.0, 0.05% Tween 20) for an hour at room temperature. Next, the peptide arrays were incubated overnight at 4° C. with purified GST-Abl SH3 in the blocking buffer at a final concentration of 5 μM. After washing three times for ten minutes with the TBST buffer (TBS pH8.0, 0.05% Tween 20), an anti-GST antibody (Santa Cruz Biotechnology) was added to a final concentration of 0.2 μg/ml in the blocking buffer for one hour at room temperature. The arrays were then washed three times for ten minutes with the TBST buffer. Finally, the arrays were incubated with the secondary antibody, Cy3-conjugated goat-anti-mouse IgG (H+L) (Jackson ImmunoResearch), for one hour at room temperature, followed by washing for three times for ten minutes with the TBST buffer. As a control, the peptide array was incubated with the anti-GST and the secondary antibodies alone.
To analyze the microarray data, the spots that were flagged as noisy were first removed. For the high (1 mg/ml) and low (0.5 mg/ml) printing concentrations, 724 and 767 (out of 800) spots remained for later analyses, respectively. Next, the statistical cut-off was determined for the significant fluorescence signal by modeling the background intensity distribution using a Gamma distribution (FIG. 4). The spots were binned based on the fluorescence intensity. To have a better curve fitting, the long tail of the histogram that represented strong binding peptides was removed and only the bins with intensity less than 900 and 1500 for the high and low concentrations, respectively, were kept. The model fitting and p-value calculation were conducted using R and P-value of 0.05 was used as the cutoff.

T2 sequence (P00519 61-121 limits assumed): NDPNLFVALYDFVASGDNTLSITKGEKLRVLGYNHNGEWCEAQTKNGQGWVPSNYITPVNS

Binder | Average fluorescence intensity (high printing concentration)
[Ahx]PPPPPPPGPP (protein label as printed) [WASP2_HUMAN 394-403 peptide PPPPPPPGPP] | 2380
[Ahx]PVAPPPPPPP [WASL_HUMAN 370-379 peptide PVAPPPPPPP] | 48800
[Ahx]SRGGPPPPPP [WASL_HUMAN 283-292 peptide SRGGPPPPPP] | 744
[Ahx]GRGGPPPPPP [WASP_HUMAN 363-372 peptide GRGGPPPPPP] | 1300
PPSLPPPPPP (not fully specified (N-terminus)) [CBLB_HUMAN 818-827 peptide PPSLPPPPPP] | 35000
PPPPPVPPPP (not fully specified (N-terminus)) [EVL_HUMAN 185-194 peptide PPPPPVPPPP] | 4680
[Ahx]PPPPPMPPPP [YLPM1_HUMAN 102-111 peptide PPPPPMPPPP] | 22800
APPTPPPPPP (not fully specified (N-terminus)) [RAPH1_HUMAN 811-820 peptide APPTPPPPPP] | 54400
CPLQPPPPPP (not fully specified (N-terminus)) [PDE4D_HUMAN peptide CPLQPPPPPP] | 840
[Ahx]LPPPPLPPPP [YLPM1_HUMAN 81-90 peptide LPPPPLPPPP] | 595
[Ahx]PPAGGPPPPP (protein label as printed) [VASP2_HUMAN 165-174 peptide PPAGGPPPPP] | 26200
LPPGPPPPVP (not fully specified (N-terminus)) [CPSF6_HUMAN 292-301 peptide LPPGPPPPVP] | 1900
APTVPPPLPP (not fully specified (N-terminus)) [3BP1_HUMAN 616-625 peptide APTVPPPLPP] | 45100
SPPLPPPPPP (not fully specified (N-terminus)) [RAPH1_HUMAN 677-686 peptide SPPLPPPPPP] | 17500
PNQVPPPPPP (not fully specified (N-terminus)) [ENAH_HUMAN 357-366 peptide PNQVPPPPPP] | 58000
[Ahx]APSGPPPPPP [WASL_HUMAN 354-363 peptide APSGPPPPPP] | 52300
[Ahx]GPPMPPPPPP [WASP_HUMAN 390-399 peptide GPPMPPPPPP] | 23400
[Ahx]GPVAPPPPPP [WASL_HUMAN 369-378 peptide GPVAPPPPPP] | 45000
PPAYPPPPVP (not fully specified (N-terminus)) [3BP2_HUMAN 201-210 peptide PPAYPPPPVP] | 29700
PPAVPPPPVP (not fully specified (N-terminus)) [RIN1_HUMAN 259-268 peptide PPAVPPPPVP] | 42600
[Ahx]VAPPPPPPPP [WASL_HUMAN 371-380 peptide VAPPPPPPPP] | 914

biological target: T1, Polycomb protein chromodomain (a.a. …); test: peptide microarray, GST-Polycomb chromodomain overlaid on trimethylated peptides, p<0.001 in at least two of three spots
From the text: There are a total of 46 histone peptide sequences (9 a.a. long) with a single lysine-trimethylation site which are conserved between the human and fruit fly H2, H3 and H4 proteins (Table II). These were screened for Polycomb protein chromodomain binding by peptide microarray. Each peptide sequence was screened as triplets, and the fluorescence intensity was quantified with background subtraction individually for each spot from the microarray images by ImageJ⁹ and the whole data set was fit to a mixed Gaussian distribution model (FIG. 8, Table III).
The peptide microarray was rinsed with TBST buffer (25 mM Tris, 125 mM NaCl, 0.05% Tween-20, pH 8) followed by blocking with 5% non-fat milk in TBST (room temperature 1 hour or 4° C. overnight). The slide was then incubated at 4° C. with Polycomb-GST fusion protein at a final concentration of […] in 5% non-fat milk/TBST for 6 hours. After washing three times for 10 minutes each with TBST, the slide was incubated with an anti-GST mouse monoclonal IgG antibody (Thermo) at a final concentration of 1 μg/mL in 5% non-fat milk/TBST and shaken gently for 1 hour at room temperature. […] The slide was shaken for 1 hr at room temperature and washed three times with TBST.

Binder | binding result
MDVVYALK(Me3″)R (also called H4 91) [MDVVYALKR, H4_DROME lysine site 91, trimethylated] | binds
GGAKRHRK(Me3″)V (also called H4 20) [GGAKRHRKV, H4_DROME lysine site 20, trimethylated] | binds
IQAVLLPK(Me3″)K (also called H2A1 117) [IQAVLLPKK, H2A_DROME lysine site 117, trimethylated] | binds
GRIHRHLK(Me3″)S (also called H2AZ 37) [GRIHRHLKS, H2AV_DROME lysine site 37, trimethylated] | binds
LATKAARK(Me3″)S (also called H3K27me3; H3.3 27) [LATKAARKS, H3_DROME lysine site 27, trimethylated] | binds
RTKQTARK(Me3″)S (also called H3.3 9) [RTKQTARKS, H3_DROME lysine site 9, trimethylated] | binds
PRKQLATK(Me3″)A (also called H3.3 23) [PRKQLATKA, H3_DROME lysine site 23, trimethylated] | binds
DSGKAKAK(Me3″)A (also called H2AV 15) [DSGKAKAKA, H2AV_DROME lysine site 15, trimethylated] | binds
ASKDLKVK(Me3″)R (also called H2AZ, H2AV 79) [ASKDLKVKR, H2AV_DROME lysine site 79, trimethylated] | binds
RIHRLLRK(Me3″)G (also called H2A1A 35) [RIHRLLRKG, H2A_DROME lysine site 35, trimethylated] | binds
EGTKAVTK(Me3″)Y (also called H2B1A 117) [EGTKAVTKY, H2B_DROME lysine site 117, trimethylated] | binds
REIRRYQK(Me3″)S (also called H3.3 56) [REIRRYQKS, H3_DROME lysine site 56, trimethylated] | binds
